Experiment [1] has as its target T1, murine RAGE-strep tag fusion protein (mouse, UniProt Q62151 23-343).
T1 construct: also called mRAGE-strep; mRAGE-SA
T1 chain: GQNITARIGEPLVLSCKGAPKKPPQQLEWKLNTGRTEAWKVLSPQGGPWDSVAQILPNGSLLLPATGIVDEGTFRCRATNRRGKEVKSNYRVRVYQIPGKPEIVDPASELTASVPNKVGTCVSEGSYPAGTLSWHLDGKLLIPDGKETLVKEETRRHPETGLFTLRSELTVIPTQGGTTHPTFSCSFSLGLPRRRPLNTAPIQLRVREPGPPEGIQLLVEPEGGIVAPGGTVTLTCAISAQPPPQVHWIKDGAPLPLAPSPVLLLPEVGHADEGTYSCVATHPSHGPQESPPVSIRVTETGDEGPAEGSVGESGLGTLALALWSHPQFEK
The experiment is described as follows: ELISA, mRAGE-strep.

The target of another experiment is T2, murine RAGE, full length (mouse, UniProt Q62151 23-402).
T2 construct: Expressed on 293 cells; also called mRAGE; 293-murine RAGE
T2 chain: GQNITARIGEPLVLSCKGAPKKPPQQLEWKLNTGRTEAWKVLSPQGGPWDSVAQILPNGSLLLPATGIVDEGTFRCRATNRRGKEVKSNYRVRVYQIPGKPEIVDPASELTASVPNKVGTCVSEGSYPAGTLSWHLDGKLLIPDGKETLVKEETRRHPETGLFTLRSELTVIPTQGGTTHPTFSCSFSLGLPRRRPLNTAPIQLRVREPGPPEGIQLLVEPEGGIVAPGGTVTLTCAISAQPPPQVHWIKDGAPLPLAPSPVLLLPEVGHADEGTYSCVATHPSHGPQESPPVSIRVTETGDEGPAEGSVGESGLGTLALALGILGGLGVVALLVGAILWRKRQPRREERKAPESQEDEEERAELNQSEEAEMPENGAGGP
The experiment can be described thus: FACS, 293 cells infected with murine RAGE adenovirus. How it is done:
Human 293 cells were infected with the human and murine RAGE adenovirus. Infected cells were suspended in PBS containing 1% BSA at a density of 4×10⁴ cells/ml. Cells were incubated with 100 ul of sample (diluted immune sera, hybridoma supernatants or purified antibodies) for 30 min at 4° C. After washing, cells were incubated with PE-labeled goat, anti-mouse, IgG, F(ab′)₂ (DAKO Corporation GlostrupDenmark) for 30 min at 4° C. in the dark. Cell-associated fluorescence signals were measured by a FACScan flow cytofluorometer (Becton Dickinson) using 5000 cells per treatment. Propidium iodide was used to identify dead cells, which were excluded from the analysis.
Background: A flow cytometer gives signals particle by particle.

In the next experiment the target is T3, baboon RAGE (baboon (Papio cyanocephalus), UniProt Q15109 23-404 (human entry)).
T3 construct: On transfected 293 cells or endogenous in baboon lung sections; also called 293-baboon RAGE; RAGE in baboon lung
T3 chain: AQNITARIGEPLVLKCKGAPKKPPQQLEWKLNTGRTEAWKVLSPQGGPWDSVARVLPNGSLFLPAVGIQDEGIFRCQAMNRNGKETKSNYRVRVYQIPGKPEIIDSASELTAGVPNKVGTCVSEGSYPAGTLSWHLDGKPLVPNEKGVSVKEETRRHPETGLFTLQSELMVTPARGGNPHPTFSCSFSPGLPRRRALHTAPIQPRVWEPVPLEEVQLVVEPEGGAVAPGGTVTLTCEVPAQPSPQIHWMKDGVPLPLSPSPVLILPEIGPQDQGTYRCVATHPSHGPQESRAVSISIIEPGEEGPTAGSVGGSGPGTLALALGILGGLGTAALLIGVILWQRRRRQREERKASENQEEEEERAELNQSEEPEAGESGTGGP
The experiment is described as follows: IHC, septic baboon lung, 1 µg/ml. How it is done:
(§1) Immunohistochemistry for RAGE lung tissues isolated from baboon, cynomolgus monkey, rabbit or Chinese Hamster Ovary cells over-expressing human RAGE or control CHO cells were performed using standard techniques. RAGE antibodies and rat IgG2b isotype control or mouse isotype control were used at […]. […] Following detection with HRP and Alexa Fluor 594, Alexa Fluor 488 or anti-biotin conjugated with FITC, sections were also stained with 4′-6-Diamidino-2-phenylindole (DAPI).
(§2) CHO cells stable transfected with an expression vector that expresses DNA encoding hRAGE is used as a positive control.

Experiment [2] concerns the target T4, human RAGE-Fc fusion protein (human, UniProt Q15109 23-344).
T4 construct: also called hRAGE-Fc; huRAGE-Fc; not shown: Fc domain of human IgG
The experiment can be described thus: ELISA, coated hRAGE-Fc. On the procedure: Antibodies were purified from hybridoma supernatants using standard procedures. Purified antibodies were evaluated for binding to soluble forms of RAGE with the use of ELISA. […] After washing and blocking with PBS containing 1% BSA and 0.05% Tween-20, 100 ul of sample (samples were in several forms: diluted immune serum, hybridoma supernatants, or purified antibodies, as indicated) was added and incubated for 1 hour at room temperature. The plates were washed with PBS, pH 7.2 and bound anti-RAGE antibodies were detected with the use of peroxidase-conjugated goat, anti-mouse IgG (H+L) (IgG) (Pierce, Rockford, Ill.) followed by incubation with the substrate TMB (BioFX Laboratories Owings Mills, Md. Laboratories). Absorbance values were determined at 450 nm in a spectrophotometer. The concentrations of monoclonal antibodies were determined with the use of peroxidase-labeled goat, anti-mouse IgG (Fcγ) (Pierce Rockford, Ill.) and a standard curve was generated by a purified, isotype-matched mouse IgG.

Another experiment has as its target T5, cynomolgus monkey RAGE (cynomolgus monkey (Macaca fascicularis), UniProt Q15109 23-404 (human entry)).
T5 construct: On transfected 293 cells or endogenous in monkey lung sections; also called 293-cyno monkey RAGE; RAGE in monkey lung
T5 chain: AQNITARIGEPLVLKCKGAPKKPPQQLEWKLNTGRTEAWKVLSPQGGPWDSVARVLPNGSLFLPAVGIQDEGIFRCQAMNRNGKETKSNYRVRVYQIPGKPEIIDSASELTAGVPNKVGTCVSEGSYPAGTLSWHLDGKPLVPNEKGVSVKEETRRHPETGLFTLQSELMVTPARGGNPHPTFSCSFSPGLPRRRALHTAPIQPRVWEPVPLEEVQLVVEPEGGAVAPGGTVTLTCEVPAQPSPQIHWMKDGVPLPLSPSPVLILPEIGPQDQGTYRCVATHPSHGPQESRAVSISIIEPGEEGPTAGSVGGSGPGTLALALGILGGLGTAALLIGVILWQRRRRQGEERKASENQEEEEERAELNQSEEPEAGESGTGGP
The experiment can be described thus: IHC, normal monkey lung, 5 µg/ml. How it is done: as §1, §2

The next experiment deals with T6, human RAGE, full length (human, UniProt Q15109 23-404).
T6 construct: Expressed on 293 or CHO cells, or endogenous in human lung sections; also called hRAGE; cell-surface hRAGE
The experiment is described as follows: IHC, CHO cells expressing hRAGE, 1 µg/ml. How it is done: as §1, §2

For experiment [3], the target named is T7, soluble human streptavidin-tagged RAGE (human, UniProt Q15109 23-344).
T7 construct: also called hRAGE-SA; human RAGE-strep
The experiment is described as follows: BIACORE capture, hRAGE-SA over captured antibody, 1:1 Langmuir global fit, FC2. How it is done:
(§3) The assays were performed by coating anti-human Fc antibodies onto a CM5 BIA chip with 5000 RU (pH 5.0, 7 min.) in flow cells 1-4. Each antibody was captured by flowing at 2.0 μg/ml over the anti-Fc antibodies in flow cells 2-4 (flow cell 1 was used as a reference).
On the technique in general: SPR reads the build-up and loss of mass on a sensor chip optically.

The target in experiment [4] is T7, soluble human streptavidin-tagged RAGE. The experiment is described as follows: BIACORE capture, hRAGE-SA over captured antibody, steady state affinity, FC4. On the procedure:
as §3

Experiment [5] addresses T1, murine RAGE-strep tag fusion protein. The experiment is described as follows: BIACORE capture, SA-Mu RAGE over captured antibody, 1:1 Langmuir global fit, row Average. On the procedure: as §3
Experiment [6] addresses T7, soluble human streptavidin-tagged RAGE. The experiment can be described thus: BIACORE capture, hRAGE-SA over captured antibody, steady state affinity, row Average. On the procedure: as §3
Experiment [7] concerns the target T1, murine RAGE-strep tag fusion protein. The experiment is described as follows: BIACORE capture, SA-Mu RAGE over captured antibody, 1:1 Langmuir global fit, FC4. On the procedure:
as §3

The target of experiment [8] is T7, soluble human streptavidin-tagged RAGE. The experiment can be described thus: BIACORE capture, hRAGE-SA over captured antibody, 1:1 Langmuir global fit, row Average. On the procedure:
as §3

For experiment [9] the target is unchanged. The experiment is described as follows: BIACORE capture, hRAGE-SA over captured antibody, steady state affinity, FC3. How it is done: as §3
The target is the same in experiment [10]. The experiment is described as follows: BIACORE capture, hRAGE-SA over captured antibody, 1:1 Langmuir global fit, FC4. On the procedure:
as §3

Experiment [11] has the same target. The experiment can be described thus: BIACORE capture, hRAGE-SA over captured antibody, steady state affinity, FC2 (cell circled on the sheet). How it is done: as §3
Experiment [12] shares this target. The experiment is described as follows: BIACORE capture, hRAGE-SA over captured antibody, 1:1 Langmuir global fit, FC3. How it is done:
as §3

In experiment [13] the target is T1, murine RAGE-strep tag fusion protein. The experiment can be described thus: BIACORE capture, SA-Mu RAGE over captured antibody, 1:1 Langmuir global fit, FC2. How it is done: as §3
The target is the same in experiment [14]. The experiment is described as follows: BIACORE capture, SA-Mu RAGE over captured antibody, 1:1 Langmuir global fit, FC3. How it is done: as §3
Experiment [15] concerns the target T4, human RAGE-Fc fusion protein. The experiment is described as follows: competition ELISA on coated hRAGE-Fc; competitor 12.5 ng/ml biotinylated rat XT-M4; upper end of the printed range 0.3-0.4; second listing of this pair (r31, beside r26: 0.95). On the procedure:
(§4) ELISA plates were coated overnight with 1 ug/ml human RAGE-Fc. […] Briefly, plates were coated overnight with 1 ug/ml human RAGE-Fc.
Background: An ELISA detects its analyte on a solid surface through an enzyme-linked reagent.

For experiment [16] the target is unchanged. The experiment can be described thus: competition ELISA on coated hRAGE-Fc; competitor 12.5 ng/ml biotinylated rat XT-M4. How it is done: as §4
For experiment [17] the target is unchanged. The experiment is described as follows: competition ELISA on coated hRAGE-Fc; competitor 12.5 ng/ml biotinylated rat XT-M4; lower end of the printed range 0.3-0.4; second listing of this pair (r31, beside r26: 0.95). How it is done: as §4

Data on 3 molecules can be found in patent publication US20070286858A1 (Pfizer, published 2007).

B1: XT-H1 (antibody, mouse IgG1, V domains shown)
VH: QVQLKESGPGLVAPSQSLSITCTISGFSITSYGVHWVRQPPGKGLEWLVVIWSDGRTTYNSTLKSRLSISKDNSKSQVFLKMNSLQTDDTAMYYCVRHGGYFPYAMDYWGQGTSVTVSS
VL: DIQMTQSPSSLSTSLGGKVTITCKASQDINKFIAWYQHTPGKGPRLFIYYTSTLQPGIPSRFSGNGSGRDYSFSISNLEPEDIATYYCLQYDNMYTFGGGTKLEIK
notes: also called 1hRAGEP3/6; murine anti-huRAGE monoclonal antibody XT-H1
In the case of B1, the binding result in experiment [1] is recorded as “binds”; with murine RAGE, full length, “binds”; with baboon RAGE it was “binds”; in experiment [2], “binds”; with cynomolgus monkey RAGE it was “binds”; in the experiment with human RAGE, full length, “binds”.

B2: XT-M4-V10 (antibody, V domains shown)
VH: EVQLVESGGGLVQPGGSLRLSCAASGFTFNNYWMTWVRQAPGKGLEWVASIDNSGDNTYYPDSVKDRFTISRDNAKNSLYLQMNSLRAEDTAVYYCARGGDITTGFDYWGQGTLVTVSS
VL: DIQMTQSPSSLSASVGDRVTITCRASQDVGIYVNWFQQKPGKAPKRLIYRATNLADGVPSRFSGSGSGTDFTLTISSLQPEDFATYYCLEFDEHPLTFGGGTKVEIK
The Kd is the free concentration of one partner at which half of the binding sites on the other are occupied at equilibrium, for simple one-to-one binding. As a reminder, the koff is a measure of how fast the partners let go of each other. In general, kon refers to a measure of how fast the partners come together. Take B2: the Kd in [3] was 31.8 nM; in experiment [4] it was 26 nM; in [5], 3 nM; in experiment [6] it was 25 nM; in [7], 3 nM; in experiment [8], 23.4 nM. Further, the Kd in experiment [9] was 24 nM; in experiment [10], 20.3 nM; in [11] it was 25 nM; in [12], 18.2 nM; in experiment [13] it was 3 nM; in [14], 2.9 nM. The koff was found to be 0.00972 s⁻¹ in [3]; 0.0077 s⁻¹ in experiment [5]; 0.0078 s⁻¹ in experiment [7]; 0.0457 s⁻¹ in experiment [8]; 0.0704 s⁻¹ in experiment [10]; 0.0569 s⁻¹ in [12]. In addition, the off-rate constant (koff) in experiment [13] worked out at 0.0078 s⁻¹; in experiment [14], 0.0076 s⁻¹. The kon turned out to be 306000 M⁻¹ s⁻¹ in [3]; 2.6e+06 M⁻¹ s⁻¹ in [5]; 2.6e+06 M⁻¹ s⁻¹ in experiment [7]; 2.3e+06 M⁻¹ s⁻¹ in experiment [8]; 3.47e+06 M⁻¹ s⁻¹ in [10]; 3.13e+06 M⁻¹ s⁻¹ in [12]. For the same molecule, the kon in experiment [13] and in experiment [14] was 2.6e+06 M⁻¹ s⁻¹ each time.

B3: humanized XT-M4 hVH-V2.0 / hVL-V2.10 (antibody, human IgG1, V domains shown)
VH: EVQLVESGGGLVQPGGSLRLSCAASGFTFNNYWMTWVRQAPGKGLEWVASIDNSGDNTYYPDSVKDRFTISRDNAKNSLYLQMNSLRAEDTAVYYCARGGDITTGFDYWGQGTLVTVSS
VL: DIQMTQSPSSLSASVGDRVTITCRASQDVGIYVNWFQQKPGKAPKRLIYRATNLADGVPSRFSGSGSGTDFTLTISSLQPEDFATYYCLEFDEHPLTFGGGTKVEIK
By IC50 is commonly meant the concentration needed to halve the response being measured. On to B3, for which the IC50 in [15] was 0.3 to 0.4 µg/mL; in experiment [16], 0.95 µg/mL; in experiment [17], 0.3 to 0.4 µg/mL.
